Sequences and labels used below:
B1: LINE1-full (parent)
chain: UACGUAGGUGGUUUUCCCCUGAUAGUGCUAAGGGGGCCUGGAAGUUUGGACUGGGCAGAGCUCAACACAGCGUGGCAAAGUGGCUGUGGCUAGACUGCCUCUCUGGAUUCCUCGUCACUCAGCAGGGCAUCUCUGAGAGAAAUGCC

From the RNAGym collection of RNA variant scans (doi:10.7554/elife.90254) come the findings set out here.

In the data set the parent is B1. As to the kind of experiment: self-cleavage, relative activity (ratio to wild type); higher = more cleavage; in vitro, sequencing; the parent is a self-cleaving ribozyme.
As to UACGUAGGUGGUUUACCCCUGAUAGUGCUAAGGGGGCCUGGAAGUUUGGACUGGGCAGAGCUCAACACAGCGUGGCAAAGUGGCGGUGGCUAGACUGCCUCUCUGGAUUCCUCGUCACUCAGCAGGGCAUCUCUGAGAGAAAUGCC, the self-cleavage worked out at 0.28.
Under UACGUAGGUGGUUUACCCCUGAUAGUGCUAAGGGGGCCUGGAAGUUUGGACUGGGCAGAGCUCAACACAGCGUGGCAAAGUGGCUGUGGCUAGACUGCCUCUCUGGAUUCCUCGUCACUCAGCAGGGCAGCUCUGAGAGAAAUGCC stands 1.09; under UACGUAGGUGGUUUACCCCUGAUAGUGCUAAGGGGGCCUGGAAGUUUGGACUGGGCAGAGCUCAACACAGCGUGGCAAAGUGGCUGUGGCUAGACUGCCUCUCUGGACUCCUCGUCACUCAGCAGGGCAUCUCUGAGAGAAAUGCC, 1.49; under UACGUAGGUGGUUUACCCCUGAUAGUGCUAAGGGGGCCUGGAAGUUUGGACUGGGCAGAGCUCAACACAGCGUGGCAAAGUGGCUGUGGCUAGACUGCCUCUCUGGAUUCCUCGUCACUCAGCAGGGCAUCUCUGAGAGAAACGCC, 1.26.
Take UACGUAGGUGGUUUACCCCUGAUAGUGCUAAGGGGGCCUGGAAGUUUGGACUGGGCAGAGCUCAACACAGCGUGGCAAAGUGGCUGAGGCUAGACUGCCUCUCUGGAUUCCUCGUCACUCAGCAGGGCAUCUCUGAGAGAAAUGCC: the self-cleavage turned out to be 0.08.
Turning to UACGUAGGUGGUUUACCCCUGAUAGUGCUAAGGGGGCCUGGAAGUUUGGACUGGGCAGAGCUCAACACAGCGUGGCAAAGUGGCUGCGGCUAGACUGCCUCUCUGGAUUCCUCGUCACUCAGCAGGGCAUCUCUGAGAGAAAUGCC, the self-cleavage stood at 0.28.
For the variant UACGUAGGUGGUUUACCCCUGAUAGUGCUAAGGGGGCCUGGAAGUUUGGACUGGGCAGAGCUCAACACAGCGUGGCAAAGUGGCUGUGGCUAGACUGCCACUCUGGAUUCCUCGUCACUCAGCAGGGCAUCUCUGAGAGAAAUGCC, the self-cleavage amounted to 0.59.
Then UACGUAGGUGGUUUACCCCUGAUAGUGCUAAGGGGGCCUGGAAGUUUGGACUGGGCAGAGCUCAACACAGCGUGGCAAAGUGGCUGUGGCUAGACUGCCGCUCUGGAUUCCUCGUCACUCAGCAGGGCAUCUCUGAGAGAAAUGCC, with 1.07; and UACGUAGGUGGUUUACCCCUGAUAGUGCUAAGGGGGCCUGGAAGUUUGGACUGGGCAGAGCUCAACACAGCGUGGCAAAGUGGCUGUGGCUAGACUGCCUCUCUGGAUUCCUCGUCACUCAGCAGGGCAUCACUGAGAGAAAUGCC, with 0.45.
Take UACGUAGGUGGUUUACCCCUGAUAGUGCUAAGGGGGCCUGGAAGUUUGGACUGGGCAGAGCUCAACACAGCGUGGCAAAGUGGCUGUGGCUAGACUGCCUCUCUGGAUCCCUCGUCACUCAGCAGGGCAUCUCUGAGAGAAAUGCC: the self-cleavage was 0.86.
Under UACGUAGGUGGUUUACCCCUGAUAGUGCUAAGGGGGCCUGGAAGUUUGGACUGGGCAGAGCUCAACACAGCGUGGCAAAGUGGCUGUGGCUAGACUGCCUCUCUGGAUACCUCGUCACUCAGCAGGGCAUCUCUGAGAGAAAUGCC stands 0.47; under UACGUAGGUGGUUUACCCCUGAUAGUGCUAAGGGGGCCUGGAAGUUUGGACUGGGCAGAGCUCAACACAGCGUGGCAAAGUGGCUGUGGCAAGACUGCCUCUCUGGAUUCCUCGUCACUCAGCAGGGCAUCUCUGAGAGAAAUGCC, 0.77; under UACGUAGGUGGUUUCCCCCUGAUCGUGCUAAGGGGGCCUGGAAGUUUGGACUGGGCAGAGCUCAACACAGCGUGGCAAAGUGGCUGUGGCUAGACUGCCUCUCUGGAUUCCUCGUCACUCAGCAGGGCAUCUCUGAGAGAAAUGCC, 1.84.
Under UACGUAGGUGGUUUCCCCCUGAUGGUGCUAAGGGGGCCUGGAAGUUUGGACUGGGCAGAGCUCAACACAGCGUGGCAAAGUGGCUGUGGCUAGACUGCCUCUCUGGAUUCCUCGUCACUCAGCAGGGCAUCUCUGAGAGAAAUGCC stands 1.13.
Then UACGUAGGUGGUUUCCCCCUGAUUGUGCUAAGGGGGCCUGGAAGUUUGGACUGGGCAGAGCUCAACACAGCGUGGCAAAGUGGCUGUGGCUAGACUGCCUCUCUGGAUUCCUCGUCACUCAGCAGGGCAUCUCUGAGAGAAAUGCC, with 1.08; and UACGUAGGUGGUUUACCCCUGAUAGUGCUAAGGGGGCCUGGAAGUUUGGACUGGGCAGAGCUCAACACAGCGUGGCAAAGUGGCUGUGGCUAGACAGCCUCUCUGGAUUCCUCGUCACUCAGCAGGGCAUCUCUGAGAGAAAUGCC, with 0.09.
As for UACGUAGGUGGUUUACCCCUGAUAGUGCUAAGGGGGCCUGGAAGUUUGGACUGGGCAGAGCUCAACACAGCGUGGCAAAGUGGCUGUGGCUAGACCGCCUCUCUGGAUUCCUCGUCACUCAGCAGGGCAUCUCUGAGAGAAAUGCC, the self-cleavage worked out at 0.41.
Under UACGUAGGUGGUUUACCCCUGAUAGUGCUAAGGGGGCCUGGAAGUUUGGACUGGGCAGAGCUCAACACAGCGUGGCAAAGUGGCUGUGGCUAGACUGCCUCUCUGGAUUCCUCGACACUCAGCAGGGCAUCUCUGAGAGAAAUGCC stands 1.07.
Then UACGUAGGUGGUUUCCCCCUGAUAGUGCUGAGGGGGCCUGGAAGUUUGGACUGGGCAGAGCUCAACACAGCGUGGCAAAGUGGCUGUGGCUAGACUGCCUCUCUGGAUUCCUCGUCACUCAGCAGGGCAUCUCUGAGAGAAAUGCC, with 1.14; and UACGUAGGUGGUUUACCCCUGAUAGUGCUAAGGGGGCCUGGAAGUUUGGACUGGGCAGAGCUCAACACAGCGUGGCAAAGUGGCUGUGGCUAGACUGCCUCUCUGGAUUCCUCGUCACUCAGCAGGGCAUCUCAGAGAGAAAUGCC, with 0.87.
